Laboratory results taken from publication PMC3541276.

Key:
[1] = target: rabbit muscle G-actin (rabbit) (UniProt P68135); test: ITC; 20°C; TbCof (0.15 mM, syringe) injected into ADP-G-actin (0.015 mM, cell); ADP-G-buffer: 10 mM Tris, 0.2 mM CaCl2, 0.2 mM ADP, 2.0 mM BME, pH 7.4 (low ionic strength); one-site model
[2] = target: rabbit muscle G-actin (rabbit) (UniProt P68135); test: ITC; 20°C; TbCof (0.28 mM, syringe) injected into ATP-G-actin (0.028 mM, cell); ATP-G-buffer: 10 mM Tris, 0.2 mM CaCl2, 0.2 mM ATP, 2.0 mM BME, pH 7.4 (low ionic strength); one-site model

“ADF/cofilin from Trypanosoma brucei (TbCof), His6 tag cleaved with TEV protease (natural protein)” gave a Kd [1] of 80 nM, a dH [1] of -9.48 kcal/mol and a stoichiometry N [1] of 1. For the same substance, the Kd [2] was 360 nM, the dH [2] was -3.93 kcal/mol and the stoichiometry N [2] was 1.
